Earlier results on one substance are cited in article PMC4987277.

The target in this series is C3d C3d (Homo sapiens) (UniProt P01024).
Chain of C3d C3d (Homo sapiens) (P01024 1002-1303): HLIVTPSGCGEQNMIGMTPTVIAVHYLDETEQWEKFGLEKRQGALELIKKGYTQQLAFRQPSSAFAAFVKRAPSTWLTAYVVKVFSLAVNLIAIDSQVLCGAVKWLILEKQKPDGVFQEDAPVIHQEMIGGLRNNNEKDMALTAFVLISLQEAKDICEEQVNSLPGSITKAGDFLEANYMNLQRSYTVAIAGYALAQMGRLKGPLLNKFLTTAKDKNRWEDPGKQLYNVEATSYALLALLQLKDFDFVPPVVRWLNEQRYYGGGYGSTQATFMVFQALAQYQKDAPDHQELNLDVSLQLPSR

Chain of CR2 (P20023 21-971): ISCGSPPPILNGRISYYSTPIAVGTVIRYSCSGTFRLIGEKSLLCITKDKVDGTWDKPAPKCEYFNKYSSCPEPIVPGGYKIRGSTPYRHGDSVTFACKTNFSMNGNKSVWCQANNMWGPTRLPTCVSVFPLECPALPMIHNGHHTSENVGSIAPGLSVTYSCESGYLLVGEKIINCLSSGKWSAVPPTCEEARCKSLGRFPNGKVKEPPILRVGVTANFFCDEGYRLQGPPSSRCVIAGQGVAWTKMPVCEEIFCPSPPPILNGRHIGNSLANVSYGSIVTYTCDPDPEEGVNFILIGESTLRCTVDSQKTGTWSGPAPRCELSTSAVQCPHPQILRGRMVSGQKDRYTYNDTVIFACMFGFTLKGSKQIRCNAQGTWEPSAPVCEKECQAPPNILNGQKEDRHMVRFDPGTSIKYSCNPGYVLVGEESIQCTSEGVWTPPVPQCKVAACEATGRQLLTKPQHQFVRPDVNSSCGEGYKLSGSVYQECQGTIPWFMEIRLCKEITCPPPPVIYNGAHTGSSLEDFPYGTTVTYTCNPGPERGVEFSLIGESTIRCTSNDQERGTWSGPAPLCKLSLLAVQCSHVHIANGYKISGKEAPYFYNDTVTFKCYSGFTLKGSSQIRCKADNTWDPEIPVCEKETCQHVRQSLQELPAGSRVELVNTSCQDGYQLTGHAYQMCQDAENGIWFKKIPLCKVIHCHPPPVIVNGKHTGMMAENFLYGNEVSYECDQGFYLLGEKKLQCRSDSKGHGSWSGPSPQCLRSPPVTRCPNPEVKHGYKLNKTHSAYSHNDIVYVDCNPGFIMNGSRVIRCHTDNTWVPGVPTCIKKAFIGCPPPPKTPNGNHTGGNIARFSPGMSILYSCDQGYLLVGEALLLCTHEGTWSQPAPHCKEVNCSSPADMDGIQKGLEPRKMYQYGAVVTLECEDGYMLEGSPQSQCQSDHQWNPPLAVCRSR

By Kd is commonly meant the concentration at which binding is half-saturated. CR2 (from UniProt P20023): the equilibrium dissociation constant (Kd) was 500 nM.
